Source: PMC9482650, “Quantitative fragmentomics allow affinity mapping of interactomes” (Nature Communications, 2022)

T1: RAPGEF6, Q8TEU7
T1 sequence (Q8TEU7 525-625, limits assumed, looked up): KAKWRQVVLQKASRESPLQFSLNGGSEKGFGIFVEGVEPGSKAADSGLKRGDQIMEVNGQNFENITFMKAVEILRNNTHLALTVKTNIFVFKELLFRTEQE

T2: PTPN13_1, Q12923
T2 sequence (Q12923 1088-1188, limits assumed, looked up): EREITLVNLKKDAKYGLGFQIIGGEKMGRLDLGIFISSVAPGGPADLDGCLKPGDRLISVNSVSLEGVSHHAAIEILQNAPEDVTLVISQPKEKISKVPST

T3: HTRA4, P83105
T3 sequence (P83105 378-476, limits assumed, looked up): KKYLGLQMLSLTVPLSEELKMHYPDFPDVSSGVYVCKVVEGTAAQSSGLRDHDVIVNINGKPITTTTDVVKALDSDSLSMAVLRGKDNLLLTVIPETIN

T4: PDZD7_3, Q9H5P4
T4 sequence (Q9H5P4 857-944, limits assumed, looked up): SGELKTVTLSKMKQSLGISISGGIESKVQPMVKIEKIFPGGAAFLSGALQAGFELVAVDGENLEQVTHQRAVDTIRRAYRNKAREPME

T5: RHPN1, Q8TCX5
T5 sequence (Q8TCX5 508-602, limits assumed, looked up): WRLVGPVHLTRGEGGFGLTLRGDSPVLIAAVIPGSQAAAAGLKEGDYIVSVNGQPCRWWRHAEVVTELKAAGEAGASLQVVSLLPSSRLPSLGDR

T6: TIAM2, Q8IVF5
T6 sequence (Q8IVF5 885-986, limits assumed, looked up): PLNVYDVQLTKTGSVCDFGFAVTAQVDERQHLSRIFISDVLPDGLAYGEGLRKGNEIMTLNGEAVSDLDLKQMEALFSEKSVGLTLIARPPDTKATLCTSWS

T7: FRMPD1, Q5SYB0
T7 sequence (Q5SYB0 52-145, limits assumed, looked up): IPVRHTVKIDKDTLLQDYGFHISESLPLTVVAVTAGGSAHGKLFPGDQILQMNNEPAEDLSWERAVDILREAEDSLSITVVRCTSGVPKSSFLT

T8: SIPA1L2, Q9P2F8
T8 sequence (Q9P2F8 945-1036, limits assumed, looked up): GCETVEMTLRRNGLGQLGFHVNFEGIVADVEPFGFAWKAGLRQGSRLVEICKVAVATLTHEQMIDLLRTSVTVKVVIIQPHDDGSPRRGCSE

T9: DVL3, Q92997
T9 sequence (Q92997 244-331, limits assumed, looked up): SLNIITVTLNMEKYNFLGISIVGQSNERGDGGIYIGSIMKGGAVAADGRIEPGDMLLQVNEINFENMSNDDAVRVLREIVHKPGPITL

T10: APBA3_1, O96018
T10 sequence (O96018 389-490, limits assumed, looked up): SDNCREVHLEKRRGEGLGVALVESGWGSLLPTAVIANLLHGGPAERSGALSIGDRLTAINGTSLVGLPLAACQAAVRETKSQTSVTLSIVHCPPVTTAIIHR

T11: SNTG2, Q9NY99
T11 sequence (Q9NY99 68-166, limits assumed, looked up): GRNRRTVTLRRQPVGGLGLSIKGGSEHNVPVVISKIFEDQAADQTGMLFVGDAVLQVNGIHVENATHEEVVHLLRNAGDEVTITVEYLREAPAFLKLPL


Biological target: MAGI2_6, Q86UL8
Sequence (Q86UL8 1141-1229): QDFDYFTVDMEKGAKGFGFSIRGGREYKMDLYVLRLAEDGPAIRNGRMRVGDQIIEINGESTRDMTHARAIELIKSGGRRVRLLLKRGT
Assay: holdup assay
Set-up: key: below the threshold = too weak to quantify, mostly under pKd 3.1 to 4
Details: plain residues with an end cap or a label only (N-terminal biotin on a linker: ado-ado)

pKd | Binder
4.24 | ELSATVTTDC [TRIP6, Q15654]

Biological target: DLG2_3, Q15700
Assay: holdup assay
Set-up: key: below the threshold = too weak to quantify, mostly under pKd 3.1 to 4
Details: plain residues with an end cap or a label only (N-terminal biotin on a linker: ado-ado)

pKd | Binder
3.57 | ELSATVTTDC [TRIP6, Q15654]

Biological target: GRASP, Q7Z6J2
Sequence (Q7Z6J2 96-193): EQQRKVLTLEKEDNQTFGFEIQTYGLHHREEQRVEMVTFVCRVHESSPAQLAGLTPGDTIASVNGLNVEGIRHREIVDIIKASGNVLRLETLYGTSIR
Assay: holdup assay
Set-up: key: below the threshold = too weak to quantify, mostly under pKd 3.1 to 4
Details: plain residues with an end cap or a label only (N-terminal biotin on a linker: ado-ado)

pKd | Binder
3.54 | ELSATVTTDC [TRIP6, Q15654]

Biological target: FRMPD2_2, Q68DX3
Sequence (Q68DX3 944-1038): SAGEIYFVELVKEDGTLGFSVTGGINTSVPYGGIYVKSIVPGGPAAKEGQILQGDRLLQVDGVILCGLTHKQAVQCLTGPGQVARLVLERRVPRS
Assay: holdup assay
Set-up: key: below the threshold = too weak to quantify, mostly under pKd 3.1 to 4
Details: plain residues with an end cap or a label only (N-terminal biotin on a linker: ado-ado)

pKd | Binder
3.47 | ELSATVTTDC [TRIP6, Q15654]

Biological target: ARHGEF12, Q9NZN5-2
Sequence (Q9NZN5 other isoform, or with tags, fused parts or gaps): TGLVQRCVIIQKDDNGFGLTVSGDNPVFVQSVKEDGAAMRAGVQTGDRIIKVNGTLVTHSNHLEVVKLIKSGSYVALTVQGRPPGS
Assay: holdup assay
Set-up: key: below the threshold = too weak to quantify, mostly under pKd 3.1 to 4
Details: plain residues with an end cap or a label only (N-terminal biotin on a linker: ado-ado)

pKd | Binder
4.44 | ELSATVTTDC [TRIP6, Q15654]

Biological target: MAGI2_3, Q86UL8
Sequence (Q86UL8 600-682): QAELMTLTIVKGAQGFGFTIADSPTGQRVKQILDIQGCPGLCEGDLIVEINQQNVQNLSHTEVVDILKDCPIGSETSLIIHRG
Assay: holdup assay
Set-up: key: below the threshold = too weak to quantify, mostly under pKd 3.1 to 4
Details: plain residues with an end cap or a label only (N-terminal biotin on a linker: ado-ado)

pKd | Binder
3.56 | ELSATVTTDC [TRIP6, Q15654]

Biological target: LNX1_2, Q8TBB1
Sequence (Q8TBB1 371-470): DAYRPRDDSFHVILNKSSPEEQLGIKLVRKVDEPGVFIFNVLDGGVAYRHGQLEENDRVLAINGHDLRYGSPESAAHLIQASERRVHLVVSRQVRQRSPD
Assay: holdup assay
Set-up: key: below the threshold = too weak to quantify, mostly under pKd 3.1 to 4
Details: plain residues with an end cap or a label only (N-terminal biotin on a linker: ado-ado)

pKd | Binder
3.88 | ELSATVTTDC [TRIP6, Q15654]

Biological target: T1, RAPGEF6, Q8TEU7
Assay: holdup assay
Set-up: key: below the threshold = too weak to quantify, mostly under pKd 3.1 to 4
Details: plain residues with an end cap or a label only (N-terminal biotin on a linker: ado-ado)

pKd | Binder
below the threshold | ELSATVTTDC [TRIP6, Q15654]

Biological target: T2, PTPN13_1, Q12923
Assay: holdup assay
Set-up: key: below the threshold = too weak to quantify, mostly under pKd 3.1 to 4
Details: plain residues with an end cap or a label only (N-terminal biotin on a linker: ado-ado)

pKd | Binder
below the threshold | ELSATVTTDC [TRIP6, Q15654]

Biological target: T3, HTRA4, P83105
Assay: holdup assay
Set-up: key: below the threshold = too weak to quantify, mostly under pKd 3.1 to 4
Details: plain residues with an end cap or a label only (N-terminal biotin on a linker: ado-ado)

pKd | Binder
below the threshold | ELSATVTTDC [TRIP6, Q15654]

Biological target: T4, PDZD7_3, Q9H5P4
Assay: holdup assay
Set-up: key: below the threshold = too weak to quantify, mostly under pKd 3.1 to 4
Details: plain residues with an end cap or a label only (N-terminal biotin on a linker: ado-ado)

pKd | Binder
3.8 | ELSATVTTDC [TRIP6, Q15654]

Biological target: FRMPD2_1, Q68DX3
Sequence (Q68DX3 770-861): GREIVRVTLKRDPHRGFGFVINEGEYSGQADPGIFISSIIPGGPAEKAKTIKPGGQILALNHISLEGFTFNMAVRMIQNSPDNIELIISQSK
Assay: holdup assay
Set-up: key: below the threshold = too weak to quantify, mostly under pKd 3.1 to 4
Details: plain residues with an end cap or a label only (N-terminal biotin on a linker: ado-ado)

pKd | Binder
below the threshold | ELSATVTTDC [TRIP6, Q15654]

Biological target: LNX1_1, Q8TBB1
Sequence (Q8TBB1 261-371): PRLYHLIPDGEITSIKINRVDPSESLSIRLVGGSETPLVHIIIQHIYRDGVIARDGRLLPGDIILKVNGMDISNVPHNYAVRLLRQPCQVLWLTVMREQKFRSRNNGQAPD
Assay: holdup assay
Set-up: key: below the threshold = too weak to quantify, mostly under pKd 3.1 to 4
Details: plain residues with an end cap or a label only (N-terminal biotin on a linker: ado-ado)

pKd | Binder
3.95 | ELSATVTTDC [TRIP6, Q15654]

Biological target: T5, RHPN1, Q8TCX5
Assay: holdup assay
Set-up: key: below the threshold = too weak to quantify, mostly under pKd 3.1 to 4
Details: plain residues with an end cap or a label only (N-terminal biotin on a linker: ado-ado)

pKd | Binder
4.32 | ELSATVTTDC [TRIP6, Q15654]

Biological target: FRMPD4, Q14CM0
Sequence (Q14CM0 67-160): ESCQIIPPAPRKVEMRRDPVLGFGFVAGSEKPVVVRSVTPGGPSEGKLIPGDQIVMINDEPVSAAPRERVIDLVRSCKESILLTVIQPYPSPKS
Assay: holdup assay
Set-up: key: below the threshold = too weak to quantify, mostly under pKd 3.1 to 4
Details: plain residues with an end cap or a label only (N-terminal biotin on a linker: ado-ado)

pKd | Binder
below the threshold | ELSATVTTDC [TRIP6, Q15654]

Biological target: GRIP2_4, Q9C0E4
Sequence (Q9C0E4 446-548): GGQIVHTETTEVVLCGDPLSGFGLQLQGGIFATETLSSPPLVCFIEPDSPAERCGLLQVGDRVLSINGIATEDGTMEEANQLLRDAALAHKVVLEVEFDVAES
Assay: holdup assay
Set-up: key: below the threshold = too weak to quantify, mostly under pKd 3.1 to 4
Details: plain residues with an end cap or a label only (N-terminal biotin on a linker: ado-ado)

pKd | Binder
below the threshold | ELSATVTTDC [TRIP6, Q15654]

Biological target: NHERF4_4, Q86UT5
Sequence (Q86UT5 464-550): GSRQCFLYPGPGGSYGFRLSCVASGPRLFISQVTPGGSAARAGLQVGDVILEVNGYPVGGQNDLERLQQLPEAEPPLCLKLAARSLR
Assay: holdup assay
Set-up: key: below the threshold = too weak to quantify, mostly under pKd 3.1 to 4
Details: plain residues with an end cap or a label only (N-terminal biotin on a linker: ado-ado)

pKd | Binder
below the threshold | ELSATVTTDC [TRIP6, Q15654]

Biological target: Inadl_8, Q8NI35
Sequence (Q8NI35 1425-1530): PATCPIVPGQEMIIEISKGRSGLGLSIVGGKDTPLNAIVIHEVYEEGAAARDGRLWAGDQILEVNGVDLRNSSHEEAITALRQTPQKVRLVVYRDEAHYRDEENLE
Assay: holdup assay
Set-up: key: below the threshold = too weak to quantify, mostly under pKd 3.1 to 4
Details: plain residues with an end cap or a label only (N-terminal biotin on a linker: ado-ado)

pKd | Binder
3.55 | ELSATVTTDC [TRIP6, Q15654]

Biological target: Inadl_6, Q8NI35
Sequence (Q8NI35 1058-1167): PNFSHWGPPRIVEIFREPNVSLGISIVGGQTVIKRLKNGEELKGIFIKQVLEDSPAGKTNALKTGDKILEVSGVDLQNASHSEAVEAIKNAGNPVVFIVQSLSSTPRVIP
Assay: holdup assay
Set-up: key: below the threshold = too weak to quantify, mostly under pKd 3.1 to 4
Details: plain residues with an end cap or a label only (N-terminal biotin on a linker: ado-ado)

pKd | Binder
below the threshold | ELSATVTTDC [TRIP6, Q15654]

Biological target: FRMPD2_3, Q68DX3
Sequence (Q68DX3 1073-1166): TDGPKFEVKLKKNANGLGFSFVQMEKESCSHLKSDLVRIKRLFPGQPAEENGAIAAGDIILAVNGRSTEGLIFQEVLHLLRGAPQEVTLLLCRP
Assay: holdup assay
Set-up: key: below the threshold = too weak to quantify, mostly under pKd 3.1 to 4
Details: plain residues with an end cap or a label only (N-terminal biotin on a linker: ado-ado)

pKd | Binder
below the threshold | ELSATVTTDC [TRIP6, Q15654]

Biological target: T6, TIAM2, Q8IVF5
Assay: holdup assay
Set-up: key: below the threshold = too weak to quantify, mostly under pKd 3.1 to 4
Details: plain residues with an end cap or a label only (N-terminal biotin on a linker: ado-ado)

pKd | Binder
below the threshold | ELSATVTTDC [TRIP6, Q15654]

Biological target: PDZRN4_1, Q6ZMN7
Sequence (Q6ZMN7 213-318): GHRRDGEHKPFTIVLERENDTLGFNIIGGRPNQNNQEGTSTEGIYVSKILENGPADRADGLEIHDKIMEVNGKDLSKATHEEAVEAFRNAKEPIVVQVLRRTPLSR
Assay: holdup assay
Set-up: key: below the threshold = too weak to quantify, mostly under pKd 3.1 to 4
Details: plain residues with an end cap or a label only (N-terminal biotin on a linker: ado-ado)

pKd | Binder
below the threshold | ELSATVTTDC [TRIP6, Q15654]

Biological target: T7, FRMPD1, Q5SYB0
Assay: holdup assay
Set-up: key: below the threshold = too weak to quantify, mostly under pKd 3.1 to 4
Details: plain residues with an end cap or a label only (N-terminal biotin on a linker: ado-ado)

pKd | Binder
below the threshold | ELSATVTTDC [TRIP6, Q15654]

Biological target: T8, SIPA1L2, Q9P2F8
Assay: holdup assay
Set-up: key: below the threshold = too weak to quantify, mostly under pKd 3.1 to 4
Details: plain residues with an end cap or a label only (N-terminal biotin on a linker: ado-ado)

pKd | Binder
below the threshold | ELSATVTTDC [TRIP6, Q15654]

Biological target: T9, DVL3, Q92997
Assay: holdup assay
Set-up: key: below the threshold = too weak to quantify, mostly under pKd 3.1 to 4
Details: plain residues with an end cap or a label only (N-terminal biotin on a linker: ado-ado)

pKd | Binder
below the threshold | ELSATVTTDC [TRIP6, Q15654]

Biological target: T10, APBA3_1, O96018
Assay: holdup assay
Set-up: key: below the threshold = too weak to quantify, mostly under pKd 3.1 to 4
Details: plain residues with an end cap or a label only (N-terminal biotin on a linker: ado-ado)

pKd | Binder
below the threshold | ELSATVTTDC [TRIP6, Q15654]

Biological target: T11, SNTG2, Q9NY99
Assay: holdup assay
Set-up: key: below the threshold = too weak to quantify, mostly under pKd 3.1 to 4
Details: plain residues with an end cap or a label only (N-terminal biotin on a linker: ado-ado)

pKd | Binder
3.79 | ELSATVTTDC [TRIP6, Q15654]
